# B1: DNA replication regulator SLD3 (Saccharomyces cerevisiae), P53135 (parent)
# chain: METWEVIASVKEATKGLDLSLDHPLIIKSEDVPSNILQLLQQKNRRQLKHICMKSRKEYFLLEEYGPGFWVKWPYNYFNGYSLPERRTEVVTTVERERAKRETLKTWDELKFKELLHLWSEEPKGSCKLEKDKDLKLDMNPPDMKGESKINDYYSDPKEYIESKYYDALFSIHTPLAYFVKSNLVRLKNTCRTKYGSDSYKIAYQAMLQKFLLSIVQFKDRHDNRLLLEPFSSPIADEKRKNCLTKFVIQDENKNSSTIADLCVVLKSREIKLQILLLLEIIGLNDLDWNFRDFEKKYKLKLKKRSLNLTKKGLVRRRSKKKTSEKDKGIERITTSLDYCEQLDLYLDRACILDILLSSETPNPDAIEASNGTIQEHKKNILDKSKEASLVGFINYVLIPYFNKKVPHAVEFIIQKLKGPSMRPKRALKKVNDSTNVSSPNTVETYNRLSTSQRASRSSIINSVPSSPALRRVDANLFSRKSIASPTPELLNSRTNSNLNEFLESETRSLKRPSQLGRTKSDLTMNHLQKRQFSVSDLSTTRVPNSSTITLKTPFSHSTINAYKTMNNSFRRVGKRKDINETIRLHERVDSEENVQVQATPAVKKRTVTPNKKAQLQSIIESPLNFKDDDTHEGRKNTSNITSTPTNKPPENSSKRRVRRRLFAPEST
# partner: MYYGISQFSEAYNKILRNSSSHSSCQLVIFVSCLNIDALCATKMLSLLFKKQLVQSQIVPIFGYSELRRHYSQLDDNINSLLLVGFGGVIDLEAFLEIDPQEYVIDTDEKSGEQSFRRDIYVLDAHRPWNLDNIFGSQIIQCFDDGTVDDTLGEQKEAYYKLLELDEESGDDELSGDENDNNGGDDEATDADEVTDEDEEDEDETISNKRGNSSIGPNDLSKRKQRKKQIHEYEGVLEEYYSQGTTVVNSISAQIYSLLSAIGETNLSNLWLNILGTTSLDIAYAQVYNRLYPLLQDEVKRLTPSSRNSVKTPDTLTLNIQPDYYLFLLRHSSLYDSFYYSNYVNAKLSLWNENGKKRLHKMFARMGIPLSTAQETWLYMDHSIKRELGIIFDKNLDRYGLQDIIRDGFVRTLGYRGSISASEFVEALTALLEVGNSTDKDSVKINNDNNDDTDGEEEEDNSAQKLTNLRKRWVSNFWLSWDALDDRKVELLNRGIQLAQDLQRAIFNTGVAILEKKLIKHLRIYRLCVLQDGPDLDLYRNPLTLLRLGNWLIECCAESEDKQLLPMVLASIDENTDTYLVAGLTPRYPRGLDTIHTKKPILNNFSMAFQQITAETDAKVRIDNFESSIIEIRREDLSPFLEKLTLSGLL
# Variants of: B1
# Details: with cdc45_yeast CDC45, Q08032
row,Variant,effect of a mutation on the interaction
1,S306D;T310D,disrupting interaction

# From IntAct's records for PubMed 20835227
